Experiment [1] addresses T1, amyloid peptide AβpE3-42 (UniProt P05067 674-713, N-terminal pyroglutamate (pE) at Aβ position 3).
T1 construct: domain: AβpE3-42; Bought synthetic peptide; also called AβpGlu3-42; Aβ(Glp3)3-42
Kind of experiment: ELISA, plate coated with AβpE3-42 (PSL), antibody titrated, blank-subtracted OD650. Here is the method: (§1) Each well of a […] MaxiSorp plate (Nunc) was coated with 50 μL aliquots of 200 ng/mL of 1-42, pE3-42 or 4-42 amyloid peptides in PBS and incubated overnight at 4° C. The wells were washed 3× with PBS-T (0.1% Tween20) and blocked with 150 μL of 5% milk in PBS/0.05% Tween20 per well. The wells were then incubated at RT with shaking for 1 hour and washed 3× with PBS-T (0.1% Tween20). 50 μl of primary antibody serially diluted in 1% milk PBS/0.05% Tween20 was added to the wells of the assay plate using a 3-fold dilution series starting from ˜100 μg/mL. The incubation and washing step was then repeated. Anti-human kappa chain HRP (Sigma A7164-1 mL) was diluted 4,000-fold in PBS/1% milk/0.05% Tween20 and 50 μl added to each well. The incubation and washing step was repeated and then 75 μL of K-Blue substrate (Neogen) was added per well and incubated for 5-10 minutes at RT. The reaction was stopped by adding 50 μl of RED STOP solution (Neogen) to each well and the optical density was read at 650 nm.
For orientation: An ELISA detects its analyte on a solid surface through an enzyme-linked reagent.

Experiment [2] has as its target T2, amyloid peptide Aβ4-42 (UniProt P05067 675-713).
T2 construct: domain: Aβ4-42; Bought synthetic peptide; also called Anaspec Aβ4-42
Kind of experiment: ELISA, plate coated with Anaspec Aβ4-42, antibody titrated after incubation in PBS or in mouse, human or cynomolgus serum, blank-subtracted OD650.

In experiment [3] the target is T1, amyloid peptide AβpE3-42. In words: ELISA, plate coated with AβpE3-42, antibody titrated, blank-subtracted OD650. Here is the method:
as §1
Therefore, F67Y, Y68N, I39W and an additional variant that combined F67Y and Y68N were generated (Table 2) and binding to Aβ1-42, AβpE3-42 and 4-42 was investigated. […] Five additional variants of the heavy chain were generated with the following mutations, S53M, S53H, R100H, L103R and L103H (Table 4b). In addition, five variants of the light chain were also generated RKF (N92W), RKG (N92Y), RKH (N92H), RKI (L94R) and RIC (L94H).

In experiment [4] the target is T2, amyloid peptide Aβ4-42. In words: ELISA, plate coated with Anaspec Aβ4-42, antibody titrated after incubation in PBS or in mouse, human or cynomolgus serum, blank-subtracted OD650 [continued].
Experiment [5] deals with T1, amyloid peptide AβpE3-42. In words: assay not given; binding to Aβ1-42, AβpE3-42 and 4-42 was investigated.
In experiment [6] the target is T2, amyloid peptide Aβ4-42. The description is as above.
Experiment [7] deals with T1, amyloid peptide AβpE3-42. Kind of experiment: ELISA, plate coated with AβpE3-42, antibody titrated, A650nm. How it is done:
as §1

The target of experiment [8] is T1, amyloid peptide AβpE3-42. The description is as above. How it is done:
as §1
The source holds these as a separate data set.

The target in experiment [9] is T1, amyloid peptide AβpE3-42. In words: ELISA, plate coated with AβpE3-42 from PSL, antibody titrated, A650nm. Here is the method:
as §1

Experiment [10] concerns the target T1, amyloid peptide AβpE3-42. In words: ELISA, plate coated with AβpE3-42, antibody titrated, signal as % Max. How it is done:
as §1

The target in experiment [11] is T2, amyloid peptide Aβ4-42. In words: SPR, Biacore T200; SPR (Biacore T200), apparent KD comparable to the mouse antibody.
Experiment [12] addresses T1, amyloid peptide AβpE3-42. In words: ELISA, plate coated with AβpE3-42 (target by legend paragraph 24), antibody titrated, A650nm. Here is the method: as §1
Experiment [13] has as its target T3, amyloid peptide Aβ1-42 (UniProt P05067 672-713).
T3 construct: domain: Aβ1-42; Bought synthetic peptide; also called amyloid full length peptide Aβ1-42
In words: ELISA, plate coated with Aβ1-42 (target by legend paragraph 23), antibody titrated, signal as % Max; the value lies beyond the highest concentration shown.

Read-outs that look alike come from different tables or passages of the source.

T1 sequence (P05067 674-713 limits assumed): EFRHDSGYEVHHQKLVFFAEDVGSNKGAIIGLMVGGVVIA
T2 sequence (P05067 675-713 limits assumed): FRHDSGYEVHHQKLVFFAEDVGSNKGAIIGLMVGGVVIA
T3 sequence (P05067 672-713 limits assumed): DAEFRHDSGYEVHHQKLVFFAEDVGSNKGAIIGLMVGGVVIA

B1: humanized NT4X-167 RHS/RKA (antibody, mouse IgG1, V domains shown)
VH: QVQLQESGPGLVKPSETLSLTCTVSGFSLSSYGIHWIRQPPGKGLEWIGVMWSGGITDFYAAFISRVTISRDTSKNQVSLKLSSVTAADTAVYYCARGSRYALDYWGQGTLVTVSS
VL: DIQMTQSPSSLSASVGDRVTITCRASQDISNYLNWYQQKPGKAPKLLIYYTSRLHSGVPSRFSGSGSGTDFTLTISSLQPEDFATYYCQQGNTLPPTFGGGTKLEIK
notes: also called SA; RHS/KA
B1: the binding result in experiment [1] and in experiment [2] was “binds” throughout.

B2: humanized NT4X-167 RHS7/RKA (antibody, mouse IgG1, V domains shown)
VH: QVQLQESGPGLVKPSETLSLTCTVSGFSLSSYGIHWIRQPPGKGLEWIGVMWSGGITNFYPSLKSRVTISRDTSKNQVSLKLSSVTAADTAVYYCARGSRYALDYWGQGTLVTVSS
VL: DIQMTQSPSSLSASVGDRVTITCRASQDISNYLNWYQQKPGKAPKLLIYYTSRLHSGVPSRFSGSGSGTDFTLTISSLQPEDFATYYCQQGNTLPPTFGGGTKLEIK
notes: also called S7A
In the case of B2, the binding result in experiment [3] and in experiment [4] was “binds” throughout.

B3: humanized NT4X-167 RHS71/RKA (antibody, V domains shown)
VH: QVQLQESGPGLVKPSETLSLTCTVSGFSLSSYGIHWIRQPPGKGLEWIGVMWSGGITNYYPSLKSRVTISRDTSKNQVSLKLSSVTAADTAVYYCARGSRYALDYWGQGTLVTVSS
VL: DIQMTQSPSSLSASVGDRVTITCRASQDISNYLNWYQQKPGKAPKLLIYYTSRLHSGVPSRFSGSGSGTDFTLTISSLQPEDFATYYCQQGNTLPPTFGGGTKLEIK
notes: also called RHS71 (F67Y) with RKA
As for B3, the binding result in experiment [5] and in experiment [6] was “binds” each time.

B4: chimeric NT4X-167 antibody (antibody, V domains shown)
VH: QVQLKQSGPGLVQPSQSLSITCTVSGFSLTSYGIHWVRQSPGKGLEWLGVMWSGGITDFYAAFISRLSISRDISKSQVFFKMNSLQADDTAIYYCARGSRYALDYWGQGTSVSVSS
VL: DIQMTQTTSSLSASLGDRVTISCRASQDISNYLNWYQQKPDGTVKLLIYYTSRLHSGVPSRFSGSGSGTDYSLTISNLEQEDIATYFCQQGNTLPPTFGGGTKLEIK
notes: also called chimeric positive control antibody
Regarding B4, the half-maximal effective concentration (EC50 (read off the curve)) in experiment [7] and in experiment [8] was ~0.07 µg/mL throughout. The concentration for a half-maximal effect (EC50) (in general, the concentration needed to bring the measured effect to its halfway point) in experiment [9] amounted to 47.1 nM; in [10], 0.118 µg/mL; in experiment [12], 0.227 µg/mL; in experiment [13], 214 µg/mL. Moreover, the binding result in experiment [11] is given as “binds”.

The values are drawn from patent US20210347867A1 (GEORG AUGUST UNIVERSIT T G TTINGEN STIFTUNG FFENTLICHEN …, published 2021).
